Target: human Toll-like receptor 5, V5-tagged (hTLR5-V5) (human) (UniProt O60602)
Chain of UniProt O60602 (O60602 21-858): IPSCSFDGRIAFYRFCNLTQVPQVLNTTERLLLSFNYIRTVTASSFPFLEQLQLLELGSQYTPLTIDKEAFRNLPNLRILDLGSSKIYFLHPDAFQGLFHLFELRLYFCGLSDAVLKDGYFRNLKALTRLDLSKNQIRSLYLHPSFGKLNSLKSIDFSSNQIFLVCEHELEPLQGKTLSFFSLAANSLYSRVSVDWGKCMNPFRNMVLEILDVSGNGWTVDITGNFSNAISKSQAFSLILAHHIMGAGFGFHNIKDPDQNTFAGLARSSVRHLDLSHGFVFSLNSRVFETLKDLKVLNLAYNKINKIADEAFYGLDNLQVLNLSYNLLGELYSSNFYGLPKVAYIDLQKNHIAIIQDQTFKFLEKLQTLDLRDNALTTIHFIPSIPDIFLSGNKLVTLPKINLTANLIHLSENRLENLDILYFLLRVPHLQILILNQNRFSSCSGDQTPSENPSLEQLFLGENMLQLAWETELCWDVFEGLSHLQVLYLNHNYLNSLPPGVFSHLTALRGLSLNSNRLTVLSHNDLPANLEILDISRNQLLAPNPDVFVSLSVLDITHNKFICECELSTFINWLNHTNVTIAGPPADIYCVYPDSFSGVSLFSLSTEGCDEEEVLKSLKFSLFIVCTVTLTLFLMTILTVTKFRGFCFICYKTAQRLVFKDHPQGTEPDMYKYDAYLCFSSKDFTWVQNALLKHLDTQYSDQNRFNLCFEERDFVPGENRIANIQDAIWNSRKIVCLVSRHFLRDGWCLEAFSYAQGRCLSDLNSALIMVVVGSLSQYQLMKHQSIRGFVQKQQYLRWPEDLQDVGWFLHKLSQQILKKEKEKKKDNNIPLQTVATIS

## Campylobacter jejuni FlaC, recombinant 6×His-FlaC–6×His (from UniProt P96747 1-249) (natural protein)
  IL-10 mRNA (quantitative RT-PCR) in hTLR5-transfected HEK293 cells, against the hTLR5 control (data not shown): 6 fold
